# According to patent publication US20050186180A1:
# Target: murine B7-2 (recombinant, expressed from rV-B7-2 in BSC-1 cells) (murine) (UniProt P42082)
# Experiment: flow cytometry, BSC-1 cells infected with rV-B7-2 (10 MOI), FITC-conjugated antibody
# Sequence of UniProt P42082 (P42082 24-309): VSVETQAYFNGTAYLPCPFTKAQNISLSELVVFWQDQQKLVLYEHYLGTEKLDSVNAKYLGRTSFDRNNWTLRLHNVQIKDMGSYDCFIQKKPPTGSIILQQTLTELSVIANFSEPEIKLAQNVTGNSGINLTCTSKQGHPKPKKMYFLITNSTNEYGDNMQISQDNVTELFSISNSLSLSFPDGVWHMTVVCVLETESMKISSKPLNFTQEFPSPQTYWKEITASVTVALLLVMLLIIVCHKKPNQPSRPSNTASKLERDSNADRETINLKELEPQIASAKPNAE
substance,measurement,value
Rat-anti-mouse B7-2 (GL-1) monoclonal antibody (Pharmingen),mean fluorescence,1800
same,percent of cells positive,98.8%
